In patent US20250074964A1 (Ambio, Inc., priority 2023, published 2025):
Starred links: 1 amine or outer side, 2 acyl side, 3 side chain; linkers in the order of their positions; H or OH if unused. Non-standard residues stand in square brackets, D forms with d. Residues, ends and D or L forms follow the SMILES beside them. Groups on a side chain read outwards from the residue. No end group written: not given here. *: point of attachment. (CH2)18‑OH = polymethylene chain of 18 CH2 units ending in OH (m = 18), OCCCCCCCCCCCCCCCCCC*; C18 diacid = O=C(O)CCCCCCCCCCCCCCCCC(=O)*; γGlu = O=C(O)[C@H](CCC(=O)[*:2])N[*:1]; Dap = NC[C@H](N)C(=O)O; AEEA = NCCOCCOCC(=O)O; Aib = CC(C)(N)C(=O)O

Tests used:
GLP-1R = target: T1, GLP-1R (Homo sapiens, UniProt P43220); test: Cell-Based Tag-Lite GLP-1R Receptor Binding FRET Assay
T1 construct: purchased
T1 sequence (P43220 24-463): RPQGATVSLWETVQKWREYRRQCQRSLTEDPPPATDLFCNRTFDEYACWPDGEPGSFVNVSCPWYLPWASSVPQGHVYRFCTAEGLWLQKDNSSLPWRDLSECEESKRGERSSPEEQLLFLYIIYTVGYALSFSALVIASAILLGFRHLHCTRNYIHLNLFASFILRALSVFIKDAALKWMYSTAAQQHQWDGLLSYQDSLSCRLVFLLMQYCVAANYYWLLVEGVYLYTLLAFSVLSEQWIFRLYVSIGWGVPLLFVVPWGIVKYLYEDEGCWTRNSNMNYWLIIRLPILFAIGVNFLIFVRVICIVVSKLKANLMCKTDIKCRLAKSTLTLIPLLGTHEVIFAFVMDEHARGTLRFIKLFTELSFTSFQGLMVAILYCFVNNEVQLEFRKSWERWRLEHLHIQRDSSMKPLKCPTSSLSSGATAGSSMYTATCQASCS

[1] = target: human GLP-1R (constitutively expressed on recombinant HEK293 CRE-luciferase reporter cells) (human) (UniProt P43220); test: cell-based or functional assay
Sequence of human GLP-1R (constitutively expressed on recombinant HEK293 CRE-luciferase reporter cells) (human) (P43220 24-463): as above

[2] = target: human GLP-1R (constitutively expressed on recombinant HEK293 CRE-luciferase reporter cells) (human, UniProt P43220 24-463); test: cell-based or functional assay
[3] = target: GLP-1R on Tag-Lite Glucagon GLP-1 labeled cells; test: Tag-Lite GLP-1R binding FRET competition assay on cells, absence of HSA; competitor: red agonist
Sequence of GLP-1R on Tag-Lite Glucagon GLP-1 labeled cells (P43220 24-463): as above

[4] = target: GLP-1R on Tag-Lite Glucagon GLP-1 labeled cells; test: Tag-Lite GLP-1R binding FRET competition assay on cells, with 2% HSA; competitor: red agonist

`CC[C@H](C)[C@H](NC(=O)[C@H](Cc1ccccc1)NC(=O)[C@H](CCC(=O)O)NC(=O)[C@H](CCCCNC(=O)COCCOCCNC(=O)COCCOCCNC(=O)CC[C@H](NC(=O)CCCCCCCCCCCCCCCCC(=O)O)C(=O)O)NC(=O)[C@H](C)NC(=O)[C@H](C)NC(=O)[C@H](CCC(N)=O)NC(=O)CNC(=O)[C@H](CCC(=O)O)NC(=O)C(C)(C)NC(=O)[C@H](Cc1ccc(O)cc1)NC(=O)[C@H](CO)NC(=O)[C@H](CO)NC(=O)[C@@H](NC(=O)[C@H](CC(=O)O)NC(=O)[C@H](CO)NC(=O)[C@@H](NC(=O)[C@H](Cc1ccccc1)NC(=O)[C@@H](NC(=O)CNC(=O)[C@H](CCC(=O)O)NC(=O)C(C)(C)NC(=O)[C@@H](N)Cc1c[nH]cn1)[C@@H](C)O)[C@@H](C)O)C(C)C)C(=O)N[C@@H](C)C(=O)N[C@@H](Cc1c[nH]c2ccccc12)C(=O)N[C@@H](CC(C)C)C(=O)N[C@H](C(=O)NCC(=O)NCC(=O)N1CCC[C@H]1C(=O)N[C@@H](CO)C(=O)N[C@@H](CO)C(=O)NCC(=O)N[C@@H](C)C(=O)N1CCC[C@H]1C(=O)N1CCC[C@H]1C(=O)N1CCC[C@H]1C(=O)N[C@@H](CO)C(N)=O)C(C)C` [APi3713] (H-H[Aib]EGTFTSDVSSY[Aib]EGQAAK([AEEA-AEEA-γGlu-C18 diacid])EFIAWLVGGPSSGAPPPS-NH2; N-terminus assumed) was tested, and the IC50 (GLP-1R; absence of HSA) was 1.59 µM and the IC50 (GLP-1R; with 2% HSA) was 95.9 µM.

In the case of semaglutide (peptide), the biological IC50, CRE-luciferase reporter assay [1] is reported as 0.4 nM.

liraglutide (peptide) showed a biological IC50, CRE-luciferase reporter assay [1] of 0.03 nM.

B1: APi3709 (peptide)
peptide: Y[Aib]EGTFTSDVSS[Aib]LEGQAAK([AEEA-AEEA-γGlu-(CH2)18‑OH])EFIAWLVRGRG
For B1, the “biological IC50, CRE-luciferase reporter assay” value (“biological IC50” for short) [2] was roughly 5.4 nM, the IC50 [3] was 2.48 µM and the IC50 [4] was 129 µM.

B2: APi3710 (peptide)
peptide: HXEGTFTSDVSSXLEGQAAKEFIAWLVRGRG
modifications: GLP-1 numbering (first residue is Xaa7): Aib-ψ[CH2NH] at Xaa8 (reduced peptide bond between Aib and the next residue); Aib at Xaa19; ε-amino group of Lys26 substituted with AEEA-AEEA-γ-Glu-(CH2)m-OH, m is 18
B2 gave an IC50 [3] of 4.08 µM and an IC50 [4] of 809 µM.

B3: APi3711 (peptide)
peptide: B2 peptide
modifications: GLP-1 numbering (first residue is Xaa7): Aib at Xaa8 and Xaa19; ε-amino group of Lys26 substituted with AEEA-AEEA-γ-Glu-(CH2)m-OH, m is 18
With B3 the “biological IC50” value [2] was roughly 0.66 nM, the IC50 [3] was 0.898 µM and the IC50 [4] was 77.8 µM.

B4: APi3712 (peptide)
peptide: H[Aib]EGTFTSDVSS[Aib]LEGQAAK([AEEA-AEEA-γGlu-(CH2)18‑OH])EFIAWLVRG[Dap]G
In the case of B4, the “biological IC50” value [2] is reported as roughly 0.66 nM, the IC50 [3] is reported as 1.7 µM and the IC50 [4] is reported as 179 µM.

B5: APi3713 (peptide)
peptide: H[Aib]EGTFTSDVSSY[Aib]EGQAAK([AEEA-AEEA-γGlu-(CH2)18‑OH])EFIAWLVGGPSSGAPPPS-NH2
In the case of B5, the “biological IC50” value [2] is reported as roughly 0.57 nM, the IC50 [3] is reported as 1.59 µM and the IC50 [4] is reported as 95.9 µM.
